# Test results reported in PMC4072508, “Genome-Wide Prediction and Validation of Peptides That Bind Human Prosurvival Bcl-2 Proteins” (PLoS Computational Biology, 2014).
# T1: Mcl-1, Q07820
# T1 chain: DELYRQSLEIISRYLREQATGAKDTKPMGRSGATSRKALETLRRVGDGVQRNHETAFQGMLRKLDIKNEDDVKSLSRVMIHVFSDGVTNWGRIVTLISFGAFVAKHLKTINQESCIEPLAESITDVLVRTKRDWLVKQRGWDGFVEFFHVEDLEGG
# Target: Bcl-xL, Q07817
# Test: peptide SPOT array, c-Myc-tagged receptor at 1 uM or 100 nM, anti-c-Myc-Cy3
# Sequence of Bcl-xL, Q07817 (Q07817 1-209): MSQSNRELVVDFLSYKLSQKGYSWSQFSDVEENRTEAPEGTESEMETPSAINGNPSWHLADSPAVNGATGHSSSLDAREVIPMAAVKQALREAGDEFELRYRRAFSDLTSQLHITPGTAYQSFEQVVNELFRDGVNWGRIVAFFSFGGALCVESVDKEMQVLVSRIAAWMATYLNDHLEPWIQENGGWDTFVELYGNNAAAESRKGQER
row,Binder,SPOT signal as a fraction of Bim BH3's signal on the same receptor and array
1,SDNLFKWVGTIHGAAGTVYEDLRYKL [UBE2C],0.03
2,EVRSSQFARKDWRSSRRISQVSSGET [NBEAL2],0.92
3,REHIKLLIQKLTDVAEECQNNQLKKL [PLCB1],0.05
4,KYDPSKYCHNDKKIGEDFSNTIPISS [NOL8],0.08
5,EVLAGPLAQRLSHILEDVGRLVKKSR [ARHGAP4],0.19
6,CLSCDLCGCRLGEVLRRLYYKLGRKL [LMO2],0.54
7,RQAFYLHTTKDTRIARRLCREILRPW [MTA1],1.26
8,WLVLRRLVTLITQLAKELSNKGVLKT [BCAP29],0.35
9,GSIAKKFSAALQKLSSHLQPRVPEHS [ANO2],0.11
10,KKRADSVANKLGSFGKTLGSKLKKNM [OTUD7B],0.58
11,LANVTEDAKRLIAVADSVLTKVVGDL [RNF213],0.03

# Target: T1, Mcl-1, Q07820
# Test: as above
row,Binder,SPOT signal as a fraction of Bim BH3's signal on the same receptor and array
1,AFVGRLVSTLISKAGRELGENLDQIL [IPO9],0.03
2,MKLRNLFTKFIRKFGFELVKRLLPEE [RRP12],0.14
3,YGKVRKAASSIDQFSIRLGIFLRRYP [GOLGA5],0.29
4,AEIEMDYSRNLEKLAERFLAKTRSTK [SRGAP2],0.08
5,VLLLSSSVNSLRKAAHEALQDFQKYK [DNAH8],0.19
6,FGDEGAVIEVLHRGSADLNARNKRRQ [MIB1],0.05
7,RDHDEFIINLIRGLGGNLNMKSRLEF [DYNC2H1],0.03
8,DLDSNQAAMVLIRLSHLLSEKPEDKG [TBRG4],0.02
9,RDSFKHLIGGLDDVSNKAYEDAEAKA [PRKG1],0.01
10,TSMETIGAKALEDFADNIKNDPDKEY [EXOC7],0.01
11,RLRSEYVAQCLGRAAQGGCPRARCRR [GFRA4],0.8
12,DRFEGYCIDLLKELAHILGFSYEIRL [GRIK3],0.02
13,GFKTTVYVSHINDLSDFYVQLIEDEA [TDRD6],0.02
14,HQQLTRAARLISETAQRVHTIGQKQK [C9orf100],0.57
15,DIARSTLAKIIEDLGVHFLLYVLKEL [UTP20],0.02
16,PEVRKVLADVLQDIANDNISSADYTQ [ARSG],0.01
17,EDLKENLAAGIKQIAEFLGFFLTGEQ [SULT6B1],0.02
18,TTLEMEFAKGLQKIAHNCRQSVMQEP [HMHA1],0.02
19,RLKVMPFAGVLEHIGGIMEIQLEENP [SLITRK2],0.02
20,YYSSRQYASALKHIAEIIERGIRQHP [TTC30A],0.08
21,PESTKRSALCIFKIARKLLFLFRIKE [UBE3B],0.1

row,Binder,SPOT signal as a fraction of Bim BH3's signal on the same receptor and array
1,LFHLLEFCLLLNQFSRAVAAKWKDDV [RLN1],0.02
2,RGLEQHVALYLEHGADVGLRTSQGET [ASB16],0.02
3,PSTYLAVAEELADVSGKYFDGLKQKA [RDH13],0.05
4,TGKDRLTAGLINIVSFDLLSKLEKQL [SMARCAL1],0.02
5,FVENASIAYALKNVSGKIWDEDNEKI [NXF3],0.02
6,QDTEQFVATVLQAASRDLDWEVRAQG [C7orf27],0.02
7,AVLSPQSADNLKQVARSLFLLGKHKA [BBS4],0.2
8,AEIETEYSRNLEKLAERFMAKTRSTK [SRGAP1],0.11
9,ATPPAASPSALKGVSQDLLERIRAKE [CDT1],0.03
10,CYRGQLAASVLRQISRELGPQEPTGS [FAM129C],0.07
11,AASDFRTSVVLNHLAEKWFPGQRERA [LONRF1],0.07
12,GADHPDVAKQLNNLALLCQNQGKFED,0.01
13,VPKIASVVGILGHLASRHGDSIRREL [INTS5],0.05
14,GPEHPAVAATLNNLAVLYGKRGRYRE,0.28
15,SGKLKEMVPIIAQYGDVLVRNLRREA [CYP3A4],0.07
16,EGPEVICAQILQGCAKQALEKLEEKR [NCAPD2],0.02
17,EGAKSETAEELKKVAQELEEKLNILN [APOL1],0.01
18,EDLQQVIASVLRNLSWRADVNSKKTL [APC],0.07
19,LGKRTSSVQALKRSARELIEGSRDDS [DST],0.05
20,TYEKPQVAEALQRAARIAISVIEFKP [RTDR1],0.02
21,NPKNKTHACYLKELGEQFVVRANHQV [NWD1],0.04
